Tested on: MS2 coat protein
Assay: apparent KD of MS2 coat protein; higher = weaker reporter binding
Conditions: Eterna round: R107
Method: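 RNA-MaP round R107: designed RNA switches with theophylline, tryptophan, arginine or FMN aptamers are transcribed on-chip within common flanks. They are titrated with SNAP-549-labelled MS2 coat protein in RNA-MaP buffer (100 mM Tris pH 7.5, 80 mM KCl, 4 mM MgCl2), without ligand or with the indicated ligand. Median apparent KD per design.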

[1] = input ligand: theophylline 20 uM
[2] = input ligand: tryptophan 2.4 mM
[3] = input ligand: theophylline 2 mM

Sequence	apparent KD of MS2 coat protein (input ligand: arginine 13.2 mM) [nM]	apparent KD of MS2 coat protein [1] [nM]	apparent KD of MS2 coat protein [2] [nM]	apparent KD of MS2 coat protein [3] [nM]	apparent KD of MS2 coat protein (input ligand: none) [nM]
CAUACUUUAUCCUAUGAGCCUAUUUGUGAUACCAGCAUCUAAAUUUGCCCUUGGCAGCACUUACAUGAGGAUCACCCAUGUUUUA [JR_NU_SSTheophyA_Sub028]	22	33.6	24		
CUAUAAGUACCGGUCCUCAGAUCCUCAUGACGAGGACCGGUACGGCCGCCACUCGAAACAUGAGGAUCACCCAUGUAAUAAUAUU [Brourdmod10]	19	31.5		24.2	
GGGUACAUCGCGGCCGCCACUCGUGUAAAUACAUGAGGAUCACCCAUGUCGAUGGAGACAUCGGAGAGGACCGGGUGAUGUACCG	110	114	46.7	81.5	81
ACAUGAGGAUCACCCAUGUAUUACCGGGAAGGAGCGGCCGCAAGGCCAGGUAGGUCGCUCGGUGUCGUGCUGUAAAGCACGACAA [#1 Same State - Arginine A Attempt #29 (HarryS)]	11.9	16.7	9.61	11.5	10.2
ACAUGAGGAUCACCCAUGUUAAGCAGGGUGCGAGGACCGGUACGGCCGCCACUCGGACAUUAUUACGAGUGAAUGGUAACGAUGU [#14 Exclusion Tryptophan A]	23.3	29.8	21.7	24.5	18.2
GACCUUAUCUGAAGGAGCGAGGUAAAUAGGGUUGAGCAUACAUGAGGAUCACCCAUGUGGCCUCAGGUAGGUCGCAGAUAAGACA [Exclusion Arginine B GF29]	149	308	137	63.4	352
AACAUGAGGAUCACCCAUGUUUGCUAUGAAGGAGCGUCGGAAAUGACAGGUAGGUCGCAUGGUAGACCGAGUAUUAUCUGUAUGG [EAA NP+V+V2 #11]	14.9	19.5	12.1	10.7	9.74
CGCGGGCCACAUGAGGAUCACCCAUGUGAAGGAGCGGCGAAUAAGCCAGGUAGGUCGCGCAUGAAUAAAUCAUGUAGGUGGCGAA [XArg-A 10 V1&2]	16.4	22.8	20.2	21.6	
GCUGCUUUGGGAAGGAGCGCUGUGGUAGUGUGGCGGACAUGAGGAUCACCCAUGUGCCUGCAGCAGGUAGGUCGCUUAGGGCAGC [EAP NP+V+V2 #16]	37.6	37.9	36.5	40.1	24.5
UAUAUAUAUAUUGAUACCAGCAGAGAAAACGUAUAUCCUAACAUGAGGAUCACCCAUGUAUGCCCUUGGCAGCGAUAUAUAUAUA [8.B]	21.2	31	24.9		
GUUGGAUUUUCGGCCGCCACUGAGAGAGUCAUGUGAACAUGAGGAUCACCCAUGUAAUAUAUAUACAGGACCGGGAGGGUUGUAA [4.L]	35	26.3	13.5	18.6	14.6
CGCAACAUGAGGAUCACCCAUGUAAUGACGCGAGGACCGGUACGGCCGCCACUCGCCUGGCAGUGAGCGCAUGCGGCCUGGGUAU [Exclusion Tryp A GF8]	10.6	16.5		14.3	
GGUGGCGUGACGGAUACCAGCCACCACCGCAAGGCCACAUGAGGAUCACCCAUGUUGGGUGGCCCUUGGCAGCUGUCGUGCGGCG [#1 Same State - Theophylline B Attempt #20 (HarryS)]	451	324	341	431	263
CUACAUGUAGUUAAACCGGUCAACAAUAAUCGAGGACCGGUACGGCCGCCACUCGAUGUGUUAUACACAUGAGGAUCACCCAUGU [Tryptophan A 15]	23.3	27.2		27.8	
AGUACUCGAACGGAUACCAGCCGGACAUGAGGAUCACCCAUGUCCUACCUCUGUUCGGUUGGCCCUUGGCAGCCGUUCGUGUACA [Omei Theo B SS A v7]	41.4	580	128		
AGCGGAACGGAAGGGUCCCGAAAUUGUGAUACCAGCCUUGAAUCCGGCCCUUGGCAGCACAUGAGGAUCACCCAUGUACUGCGGU [Arimaed]	11.4	20.7	13.1		
ACAUGAGGAUCACCCAUGUUCCUCAUUGAUACCAGUGAAUUUAGACGCCCUUGGCAGCGAGUUUUUUUAGAAGAAGUUUUUUUUU [6.F]	158	659	929		
AAUAUAUAUCACGAACUGUGGUGUAUGUUGCGAGGACCGGUACGGCCGCCACUCGGCCGGUGGUACAUGAGGAUCACCCAUGUUG [XTryp A #9]	35.3	48.7	28.2	40.1	25.3
CUUGUUUAUGGAAGGAGCGCGAUUACAUAACAUGAGGAUCACCCAUGUAAGAAAUUAUUCAUGCAGGUAGGUCGCCAUGGGUGGG [Same State Arginine B GF7]	111	105	120	258	195

Sequence	apparent KD of MS2 coat protein (input ligand: arginine 13.2 mM) [nM]	apparent KD of MS2 coat protein [1] [nM]	apparent KD of MS2 coat protein [2] [nM]	apparent KD of MS2 coat protein [3] [nM]	apparent KD of MS2 coat protein (input ligand: none) [nM]
CAGCAACAAUUGGAUACCAGCCAUUACAGGUAUCAUUAUAACAUGAGGAUCACCCAUGUAGGCCCUUGGCAGCCAUUGGUGUAAG [theeternabot_exclusion_MS2_Theo_B_22]	27.5	69	40.5		
GUUUAAAGGUCGGCCGCCACUGUAGGAUGUGUUCUUUCACAUGAGGAUCACCCAUGUUGUUAUUAUAGGACCGGGAUUUUAGGAC [39MS split4]	25.8	33.1		27.4	
AAACAUGAGGAUCACCCAUGUUCUCGUGUCCGAGGACCGGUACGGCCGCCACUCGGUUCUCGCGAGGAUGGUCAAAGACUAUCCA [Omei Trp A SS B v6]	22.9	53.6	29	46.6	45.1
GCGUACGAUCGGGAUACCAGACAUUGCCGUUAGGGUGAACCUGAGGAACACCCAGGUUUUGUCCCUUGGCAGCCCGAUCGUACGC [ETB NP+V+V2 #8 Diff Apt, Same Structure]	20.6	65.8	27.5	136	19.6
ACGACGCAUAGUGAUACCAGUAGAACAUGAGGAUCACCCAUGUCAGAUAUGUUCUAAUACUGCCCUUGGCAGCACUAUGCGUCAG [SSTheo B #4]	144	344	299		
CGAUCUUUCGAAAGAAGGAUCGAGUCUGAUACCAGAGACGAAAGUCUCCCUUGGCAGCAGUGCCAACAUGAGGAUCACCCAUGUA [Theophylline A 9]	20.7	26.3	18.9		
UGACAUUGCUGCGAUACCAGACAUGAGGAUCACCCAUGUACCAAGGUACGAAAAUAACAUGUCCCUUGGCAGCGCAGCAAUGUCU [MAT - Exclusion Theophlline B - Mod of Eli - D4]	12.6	25.7	12.1		
GGGCCCGGGCGCGAGCCCGGGCCCAUUGAUACCAGUGAAAAUAUACGCCCUUGGCAGCGAAUCCUAACAUGAGGAUCACCCAUGU [5.A]	37.7	65.7	33.4	70.9	37.2
UGUAUGGACUGAAGGAGCGCCUCAAAACAUGAGGAUCACCCAUGUGGACAAUAAGUCCUUGGGCAGGUAGGUCGCAGUCCAUACU [ArgBX 6 #StaticStem #MS2Late]	81.4	84.6	60.9	85.3	50
ACGUAAUGCAGAAGGAGCGUCAACCUCUUACAUGAGGAUCACCCAUGUUACAUGGUUGUAUGACAGGUAGGUCGCUGAAGUACGA [JR_ExcArginiB_Sub001]	31.9	50.5	36.6	50.4	34.7
UAUUUUGGGCGCGAGCCCGGGAUAAUUGAUACCAGUGAAGAAGAGCGCCCUUGGCAGCGAAUCCUAACAUGAGGAUCACCCAUGU [5.Q]	52.5	65.4	45.1		
CCAUGCAGGUCGGCCGCCACUACACACAUGAGGAUCACCCAUGUAGUUACUGGGUGAAGUGGCAGUAGGACCGGGACCUGCAUAU [Brourdmod11]	94.5	330	1020	504	284
UGGGUACAUGAGGAUCACCCAUGUACUGAAGGAGCGAGAAAUAACUCAGGUAGGUCGCAGACAUGAGGAUCACCCAUGUAAUAAA [Exclusion Arginine A GF 10]	16	23.4	18	22.5	18
AUGGAACAUGAGGAUCACCCAUGUGAUGAUACCAGAUUAACGCUUAUCCCUUGGCAGCAUGUCCGCCCUCAACCUGUGGCGUAUU [theeternabot_sameState_MS2_Theo_A_50]	21.5	36	20.3		
UAAACAUGAGGAUCACCCAUGUUGGAUGAAGGAGCGACCAGAGGGUCAGGUAGGUCGCAUCACAUGAGGAUCACCCAUGUCAUUU [DOUBLE!!! :-D #12]	59.1	114	97.7	147	108
CGAAAGCACAUGGGUUGCUUUCGACUGGAAGGAGCGAGCGAAAGCUCAGGUAGGUCGCCAGAAACAUGAGGAUCACCCAUGUAAU [(A)''-(M)'-(A)'(Arg1)-(Arg2)-(M1)-(M2)_Design10]	21.6	27.4	22.4	21.3	18.3
UGUAACAUGAGGAUCACCCAUGUGAGUGAUACCAGAUUAGUAUUAGUCCCUUGGCAGCACAUUGGGCGAGUGUAUAGUCUAUGCG [Same State - Theophylline A (Freestyle 12)]	106	197	135		
UCAUGAGGAUCACCCAUGUGGCGUCUUGAUACCAGACGAGAAGUAGUCCCUUGGCAGCAAAUACAUGAGGAUCACCCAUGUAGGA [cccmullin2]	24.5	38.2	43		
AUCGCACCUGGUGAUACCAGCGUUUGCUCGUGACAUGAGGAUCACCCAUGUGGCCAGUGAUGCCCUUGGCAGCAUGGUCGGUGCA [Same State - Theophylline B (Freestyle 26)]	61.7	376	296		
